T1: APBA1_1, Q02410
T1 sequence (Q02410 651-752, limits assumed, looked up): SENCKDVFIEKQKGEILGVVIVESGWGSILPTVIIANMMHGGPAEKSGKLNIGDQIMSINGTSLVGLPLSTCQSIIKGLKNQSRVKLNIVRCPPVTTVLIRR

T2: TIAM2, Q8IVF5
T2 sequence (Q8IVF5 885-986, limits assumed, looked up): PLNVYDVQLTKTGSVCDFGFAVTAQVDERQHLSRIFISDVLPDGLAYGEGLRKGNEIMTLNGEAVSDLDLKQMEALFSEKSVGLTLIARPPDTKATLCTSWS

T3: LNX2_3, Q8N448
T3 sequence (Q8N448 463-564, limits assumed, looked up): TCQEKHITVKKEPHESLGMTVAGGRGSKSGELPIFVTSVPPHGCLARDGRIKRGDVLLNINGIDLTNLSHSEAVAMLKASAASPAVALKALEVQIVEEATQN

T4: PTPN13_1, Q12923
T4 sequence (Q12923 1088-1188, limits assumed, looked up): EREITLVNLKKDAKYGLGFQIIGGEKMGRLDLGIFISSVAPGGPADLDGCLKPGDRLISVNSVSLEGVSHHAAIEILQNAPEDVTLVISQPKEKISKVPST

T5: GRIP1_2, Q9Y3R0
T5 sequence (Q9Y3R0 145-248, limits assumed, looked up): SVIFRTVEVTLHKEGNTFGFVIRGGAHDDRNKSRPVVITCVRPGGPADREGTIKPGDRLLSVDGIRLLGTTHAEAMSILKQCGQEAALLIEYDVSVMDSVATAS

T6: MPDZ_12, O75970
T6 sequence (O75970 1857-1958, limits assumed, looked up): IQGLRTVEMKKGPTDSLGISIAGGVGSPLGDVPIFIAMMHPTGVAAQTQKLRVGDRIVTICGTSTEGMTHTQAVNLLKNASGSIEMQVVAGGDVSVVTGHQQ

T7: MPDZ_5, O75970
T7 sequence (O75970 695-796, limits assumed, looked up): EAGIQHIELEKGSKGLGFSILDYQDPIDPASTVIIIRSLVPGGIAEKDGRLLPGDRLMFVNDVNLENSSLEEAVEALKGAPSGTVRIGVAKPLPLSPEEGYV

T8: RAPGEF6, Q8TEU7
T8 sequence (Q8TEU7 525-625, limits assumed, looked up): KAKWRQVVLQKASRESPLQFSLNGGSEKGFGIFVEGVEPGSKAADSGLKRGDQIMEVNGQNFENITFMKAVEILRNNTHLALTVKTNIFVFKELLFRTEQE

T9: PDZD2_2, O15018
T9 sequence (O15018 329-429, limits assumed, looked up): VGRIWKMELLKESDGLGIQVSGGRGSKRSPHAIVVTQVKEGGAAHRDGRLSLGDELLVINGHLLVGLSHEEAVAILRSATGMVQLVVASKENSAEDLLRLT

T10: RHPN1, Q8TCX5
T10 sequence (Q8TCX5 508-602, limits assumed, looked up): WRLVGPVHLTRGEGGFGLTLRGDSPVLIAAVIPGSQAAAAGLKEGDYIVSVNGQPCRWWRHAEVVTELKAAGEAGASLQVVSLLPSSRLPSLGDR


What was measured:
Assay in all cases: holdup assay
Parameters in all cases: key: below the threshold = too weak to quantify, mostly under pKd 3.1 to 4
Conditions in all cases: plain residues with an end cap or a label only (N-terminal biotin on a linker: ado-ado)
APBA1_1, Q02410 = molecular target: T1, APBA1_1, Q02410
SNX27, Q96L92 = molecular target: SNX27, Q96L92
TIAM2, Q8IVF5 = molecular target: T2, TIAM2, Q8IVF5
FRMPD2_1, Q68DX3 = molecular target: FRMPD2_1, Q68DX3
LNX1_2, Q8TBB1 = molecular target: LNX1_2, Q8TBB1
NOS1, P29475 = molecular target: NOS1, P29475
LNX2_3, Q8N448 = molecular target: T3, LNX2_3, Q8N448
DLG1_1, Q12959 = molecular target: DLG1_1, Q12959
PTPN13_1, Q12923 = molecular target: T4, PTPN13_1, Q12923
PARD3_3, Q8TEW0 = molecular target: PARD3_3, Q8TEW0
DLG4_3, P78352 = molecular target: DLG4_3, P78352
Inadl_1, Q8NI35 = molecular target: Inadl_1, Q8NI35
DLG2_3, Q15700 = molecular target: DLG2_3, Q15700
GRIP1_2, Q9Y3R0 = molecular target: T5, GRIP1_2, Q9Y3R0
DLG4_1, P78352 = molecular target: DLG4_1, P78352
MPDZ_12, O75970 = molecular target: T6, MPDZ_12, O75970
LAP2, Q96RT1 = molecular target: LAP2, Q96RT1
MPDZ_5, O75970 = molecular target: T7, MPDZ_5, O75970
RAPGEF6, Q8TEU7 = molecular target: T8, RAPGEF6, Q8TEU7
HTRA2, O43464 = molecular target: HTRA2, O43464
GRIP2_3, Q9C0E4 = molecular target: GRIP2_3, Q9C0E4
PDZD2_2, O15018 = molecular target: T9, PDZD2_2, O15018
NHERF4_1, Q86UT5-2 = molecular target: NHERF4_1, Q86UT5-2
MAST2, Q6P0Q8 = molecular target: MAST2, Q6P0Q8
GRIP2_7, Q9C0E4 = molecular target: GRIP2_7, Q9C0E4
MAGI2_2, Q86UL8 = molecular target: MAGI2_2, Q86UL8
RHPN1, Q8TCX5 = molecular target: T10, RHPN1, Q8TCX5
FRMPD3, Q5JV73 = molecular target: FRMPD3, Q5JV73
Sequence of FRMPD3, Q5JV73 (Q5JV73 12-100): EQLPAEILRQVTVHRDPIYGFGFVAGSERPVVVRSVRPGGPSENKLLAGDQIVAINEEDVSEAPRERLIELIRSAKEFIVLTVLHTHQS

Sequence of DLG4_1, P78352 (P78352 62-152): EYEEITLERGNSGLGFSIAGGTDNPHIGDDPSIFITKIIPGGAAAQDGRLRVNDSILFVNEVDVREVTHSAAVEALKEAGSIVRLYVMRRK
Sequence of MAGI2_2, Q86UL8 (Q86UL8 410-522): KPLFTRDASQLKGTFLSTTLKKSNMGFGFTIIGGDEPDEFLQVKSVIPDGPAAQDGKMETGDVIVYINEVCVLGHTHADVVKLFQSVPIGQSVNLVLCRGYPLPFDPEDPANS
Sequence of FRMPD2_1, Q68DX3 (Q68DX3 770-861): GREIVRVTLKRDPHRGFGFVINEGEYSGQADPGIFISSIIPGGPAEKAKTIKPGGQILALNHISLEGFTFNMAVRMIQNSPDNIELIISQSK
Sequence of NOS1, P29475 (P29475 9-101): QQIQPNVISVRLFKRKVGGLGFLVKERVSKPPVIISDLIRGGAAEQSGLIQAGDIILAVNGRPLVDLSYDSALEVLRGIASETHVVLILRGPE
Sequence of Inadl_1, Q8NI35 (Q8NI35 113-229): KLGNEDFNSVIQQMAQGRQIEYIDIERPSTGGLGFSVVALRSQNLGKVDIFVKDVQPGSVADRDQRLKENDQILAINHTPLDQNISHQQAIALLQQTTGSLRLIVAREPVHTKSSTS
Sequence of GRIP2_7, Q9C0E4 (Q9C0E4 934-1023): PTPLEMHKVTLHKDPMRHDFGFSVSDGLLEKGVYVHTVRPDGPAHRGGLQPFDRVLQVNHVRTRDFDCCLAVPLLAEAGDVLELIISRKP
Sequence of MAST2, Q6P0Q8 (Q6P0Q8 1099-1202): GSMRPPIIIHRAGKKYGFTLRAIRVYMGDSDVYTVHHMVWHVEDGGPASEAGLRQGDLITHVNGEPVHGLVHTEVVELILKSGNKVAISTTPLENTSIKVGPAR
Sequence of LNX1_2, Q8TBB1 (Q8TBB1 371-470): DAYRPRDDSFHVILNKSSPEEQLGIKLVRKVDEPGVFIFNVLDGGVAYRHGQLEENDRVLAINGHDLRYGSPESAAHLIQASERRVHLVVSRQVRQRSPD
Sequence of HTRA2, O43464 (O43464 355-458): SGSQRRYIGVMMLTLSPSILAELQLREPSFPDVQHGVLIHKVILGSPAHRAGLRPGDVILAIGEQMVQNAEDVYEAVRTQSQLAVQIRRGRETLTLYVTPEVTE
Sequence of LAP2, Q96RT1 (Q96RT1 other isoform, or with tags, fused parts or gaps): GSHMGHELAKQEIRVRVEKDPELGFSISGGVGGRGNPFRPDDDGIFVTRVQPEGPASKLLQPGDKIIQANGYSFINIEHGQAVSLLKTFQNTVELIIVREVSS
Sequence of DLG4_3, P78352 (P78352 306-403): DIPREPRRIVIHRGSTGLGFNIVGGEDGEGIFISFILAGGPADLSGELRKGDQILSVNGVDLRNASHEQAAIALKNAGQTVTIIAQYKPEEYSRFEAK
Sequence of PARD3_3, Q8TEW0 (Q8TEW0 582-685): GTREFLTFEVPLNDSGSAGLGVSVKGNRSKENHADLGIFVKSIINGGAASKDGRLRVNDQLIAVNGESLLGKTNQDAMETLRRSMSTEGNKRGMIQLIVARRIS
Sequence of NHERF4_1, Q86UT5-2 (Q86UT5 other isoform, or with tags, fused parts or gaps): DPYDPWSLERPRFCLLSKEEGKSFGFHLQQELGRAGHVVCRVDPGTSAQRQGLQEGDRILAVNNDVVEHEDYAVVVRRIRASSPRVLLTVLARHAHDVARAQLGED
Sequence of GRIP2_3, Q9C0E4 (Q9C0E4 238-339): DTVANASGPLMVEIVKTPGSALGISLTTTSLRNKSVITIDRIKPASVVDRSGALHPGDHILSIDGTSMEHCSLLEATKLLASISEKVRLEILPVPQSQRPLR

Binder	pKd (APBA1_1, Q02410)	pKd (SNX27, Q96L92)	pKd (TIAM2, Q8IVF5)	pKd (FRMPD2_1, Q68DX3)	pKd (LNX1_2, Q8TBB1)	pKd (NOS1, P29475)	pKd (LNX2_3, Q8N448)	pKd (DLG1_1, Q12959)	pKd (PTPN13_1, Q12923)	pKd (PARD3_3, Q8TEW0)	pKd (DLG4_3, P78352)	pKd (Inadl_1, Q8NI35)	pKd (DLG2_3, Q15700)	pKd (GRIP1_2, Q9Y3R0)	pKd (DLG4_1, P78352)	pKd (MPDZ_12, O75970)	pKd (LAP2, Q96RT1)	pKd (MPDZ_5, O75970)	pKd (RAPGEF6, Q8TEU7)	pKd (HTRA2, O43464)	also measured
STYCDYTIEI [FAM71C, Q8NEG0]	below the threshold	3.56	4.15	below the threshold	4.35	3.62	below the threshold	below the threshold	below the threshold	5.15	below the threshold	3.56	below the threshold	3.53	below the threshold	below the threshold	below the threshold	below the threshold	below the threshold	3.85	pKd (GRIP2_3, Q9C0E4): below the threshold; pKd (PDZD2_2, O15018): 4.69; pKd (NHERF4_1, Q86UT5-2): below the threshold; pKd (MAST2, Q6P0Q8): 5.12; pKd (GRIP2_7, Q9C0E4): below the threshold; pKd (MAGI2_2, Q86UL8): below the threshold; pKd (RHPN1, Q8TCX5): 3.47; pKd (FRMPD3, Q5JV73): below the threshold
MQILSKPEFI [NPSR1, Q6W5P4]	3.88	below the threshold	4.05	below the threshold	below the threshold	3.84	below the threshold	below the threshold	below the threshold	3.98	3.49	below the threshold	3.53	below the threshold	below the threshold	3.56	below the threshold	below the threshold	below the threshold	3.72	pKd (GRIP2_3, Q9C0E4): below the threshold; pKd (PDZD2_2, O15018): 3.62; pKd (NHERF4_1, Q86UT5-2): 3.62; pKd (MAST2, Q6P0Q8): below the threshold; pKd (GRIP2_7, Q9C0E4): 3.69; pKd (MAGI2_2, Q86UL8): below the threshold; pKd (RHPN1, Q8TCX5): below the threshold; pKd (FRMPD3, Q5JV73): below the threshold
KIEDVEITLV [FCHSD2, O94868]	below the threshold	5.01	below the threshold	below the threshold	4.55	3.8	below the threshold	3.79	below the threshold	3.99	below the threshold	below the threshold	below the threshold	below the threshold	3.89	below the threshold	3.84	below the threshold	below the threshold	3.93	pKd (GRIP2_3, Q9C0E4): below the threshold; pKd (PDZD2_2, O15018): 4.64; pKd (NHERF4_1, Q86UT5-2): 3.73; pKd (MAST2, Q6P0Q8): 5.63; pKd (GRIP2_7, Q9C0E4): below the threshold; pKd (MAGI2_2, Q86UL8): 3.77; pKd (RHPN1, Q8TCX5): 4.76; pKd (FRMPD3, Q5JV73): below the threshold

More lines, main results first:

pKd (APBA1_1, Q02410)	pKd (SNX27, Q96L92)	pKd (TIAM2, Q8IVF5)	pKd (FRMPD2_1, Q68DX3)	pKd (LNX1_2, Q8TBB1)	pKd (NOS1, P29475)	pKd (LNX2_3, Q8N448)	pKd (DLG1_1, Q12959)	pKd (PTPN13_1, Q12923)	pKd (PARD3_3, Q8TEW0)	pKd (DLG4_3, P78352)	pKd (Inadl_1, Q8NI35)	pKd (DLG2_3, Q15700)	pKd (GRIP1_2, Q9Y3R0)	pKd (DLG4_1, P78352)	pKd (MPDZ_12, O75970)	pKd (LAP2, Q96RT1)	pKd (MPDZ_5, O75970)	pKd (RAPGEF6, Q8TEU7)	pKd (HTRA2, O43464)	Binder	also measured
below the threshold	4.29	3.92	below the threshold	below the threshold	below the threshold	below the threshold	below the threshold	below the threshold	below the threshold	below the threshold	below the threshold	3.82	below the threshold	below the threshold	below the threshold	below the threshold	below the threshold	below the threshold	below the threshold	QKASRNESTF [POLR1D, P0DPB6]	pKd (GRIP2_3, Q9C0E4): below the threshold; pKd (PDZD2_2, O15018): below the threshold; pKd (NHERF4_1, Q86UT5-2): below the threshold; pKd (MAST2, Q6P0Q8): 4.95; pKd (GRIP2_7, Q9C0E4): below the threshold; pKd (MAGI2_2, Q86UL8): below the threshold; pKd (RHPN1, Q8TCX5): below the threshold; pKd (FRMPD3, Q5JV73): below the threshold
below the threshold	4.53	below the threshold	below the threshold	below the threshold	below the threshold	below the threshold	3.96	below the threshold	below the threshold	3.65	below the threshold	below the threshold	below the threshold	3.88	below the threshold	3.67	below the threshold	below the threshold	below the threshold	KEKASTETEC [TRPM1, Q7Z4N2]	pKd (GRIP2_3, Q9C0E4): below the threshold; pKd (PDZD2_2, O15018): below the threshold; pKd (NHERF4_1, Q86UT5-2): 3.66; pKd (MAST2, Q6P0Q8): 4.78; pKd (GRIP2_7, Q9C0E4): below the threshold; pKd (MAGI2_2, Q86UL8): below the threshold; pKd (RHPN1, Q8TCX5): below the threshold; pKd (FRMPD3, Q5JV73): below the threshold

Source: article PMC9482650, “Quantitative fragmentomics allow affinity mapping of interactomes” (Nature Communications, 2022)
